{"source": "paper PMC4856543", "key": {"[1]": {"biological_target": "ID2, stabilized inner domain of HIV-1 gp120 of clade A/E isolate 93TH057 (HIV-1 clade A/E isolate 93TH057)", "assay": "SPR; antibody immobilised, ID2 passed over at 0-200 nM; Biacore T-100, 25°C; 1:1 Langmuir model, BIAevaluation software; two experiments"}, "[2]": {"biological_target": "single-chain gp120BaL-sCD4 complex (full-length single-chain) (HIV-1 isolate BaL | not stated)", "assay": "ITC; iTC200, 25°C, A32 IgG with FLSC or ID2; heats of dilution subtracted"}, "[3]": {"biological_target": "ID2 (inner domain of gp120 stabilized by the C65-C115 disulfide, isolate 93TH057), from 293 cells (HIV-1 clade A/E isolate 93TH057)", "assay": "ITC; iTC200, 25°C, A32 IgG with FLSC or ID2; heats of dilution subtracted"}, "[4]": {"biological_target": "ID1 (independent inner domain of gp120, first design, isolate 93TH057) (HIV-1 clade A/E isolate 93TH057)", "assay": "SPR; Biacore T-100, 25°C, 1:1 Langmuir model"}, "[5]": {"biological_target": "single-chain gp120BaL-sCD4 complex (full-length single-chain) (HIV-1 isolate BaL | not stated)", "assay": "SPR; Biacore T-100, 25°C, 1:1 Langmuir model"}, "[6]": {"biological_target": "monomeric full-length BaL gp120 (HIV-1 isolate BaL)", "assay": "SPR; Biacore T-100, 25°C, 1:1 Langmuir model"}}}
{"substance": "mAb A32 (antibody)", "values": [{"measurement": "Kd", "setting": "[1]", "value": 0.17, "unit": "nM"}, {"measurement": "koff", "setting": "[1]", "value": 0.000275, "unit": "s⁻¹"}, {"measurement": "kon", "setting": "[1]", "value": "1.65e+06", "unit": "M⁻¹ s⁻¹"}, {"measurement": "Kd", "setting": "[2]", "value": 11.5, "unit": "nM"}, {"measurement": "dH", "setting": "[2]", "value": -3.15, "unit": "kcal/mol"}, {"measurement": "Kd", "setting": "[3]", "value": 9, "unit": "nM"}, {"measurement": "dH", "setting": "[3]", "value": -2.55, "unit": "kcal/mol"}, {"measurement": "Kd", "setting": "[4]", "value": 9.3, "unit": "nM"}, {"measurement": "koff", "setting": "[4]", "value": 0.000785, "unit": "s⁻¹"}, {"measurement": "kon", "setting": "[4]", "value": 85000, "unit": "M⁻¹ s⁻¹"}, {"measurement": "Kd", "setting": "[5]", "value": 0.23, "unit": "nM"}, {"measurement": "koff", "setting": "[5]", "value": 0.000102, "unit": "s⁻¹"}, {"measurement": "kon", "setting": "[5]", "value": 443000, "unit": "M⁻¹ s⁻¹"}, {"measurement": "Kd", "setting": "[6]", "value": 3.2, "unit": "nM"}, {"measurement": "koff", "setting": "[6]", "value": 0.000437, "unit": "s⁻¹"}, {"measurement": "kon", "setting": "[6]", "value": 139000, "unit": "M⁻¹ s⁻¹"}]}
